Experimental data from paper PMC5358875 (Journal of the American Chemical Society, 2017).
Bridge positions count the residues as written; N and C are the ends. Square brackets hold non-standard residues; d marks the D form. Ends that are not written are not given here. Peptide text beside a SMILES is read from it. I, II: the chains in the order shown. * marks the point of attachment. 5‑TAMRA = CN(C)c1ccc2c(-c3ccc(C(=O)*)cc3C(=O)[O-])c3ccc(N(C)C)cc3[o+]c2c1; Lys(N3) = [N-]=[N+]=NCCCC[C@H](N)C(=O)O; Aha = [N-]=[N+]=NCC[C@H](N)C(=O)O; m3c = not defined here; m3 = not defined here; Ahx = NCCCCCC(=O)O

B2: TNKS2 ARC4 (488–649) (domain or fragment, human, UniProt Q9H2K2 488-649, looked up)
chain: GNSEADRQLLEAAKAGDVETVKKLCTVQSVNCRDIEGRQSTPLHFAAGYNRVSVVEYLLQHGADVHAKDKGGLVPLHNACSYGHYEVAELLVKHGAVVNVADLWKFTPLHEAAAKGKYEICKLLLQHGADPTKKNRDGNTPLDLVKDGDTDIQDLLRGDAAL

Tests used:
TNKS2 ARC4 = molecular target: T1, TNKS2 ARC4 (Homo sapiens, UniProt Q9H2K2); test: Competitive fluorescence polarization, TNKS2 ARC4; type: binding; conditions: unlabeled peptides; tracer T-pep1 bound to ARC4; read-out: Kd TNKS2 ARC4 (Competition FP)
T1 construct: GST (cleaved yes); made in house; host or cells: E. coli C41(DE3)
T1 sequence (Q9H2K2 488-649): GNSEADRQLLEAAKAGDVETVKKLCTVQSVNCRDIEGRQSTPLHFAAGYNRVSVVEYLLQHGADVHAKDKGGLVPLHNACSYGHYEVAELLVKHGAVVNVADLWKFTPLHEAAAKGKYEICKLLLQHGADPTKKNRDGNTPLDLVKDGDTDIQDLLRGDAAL
Procedure: Fluorescence polarization (FP) assays were performed in 96-well half area black microplates (Corning) on a CLARIOstar microplate reader (BMG labtech) using excitation filter 540–20 nm, dichroic mirror LP 566 nm, and emission filter 590–20 nm. All peptides were dissolved in water as stock solutions. For direct FP assays, the stock concentrations of the TAMRA-labeled peptides were determined based on the 5-TAMRA absorbance at 556 nm (extinction coefficient ε = 89,000 M^–1 cm^–1) measured on a NanoDrop 2000 (Thermo Scientific) and verified by amino acid analysis (Department of Biochemistry, University of Cambridge). […] Data were analyzed on GraphPad Prism 5.0, and the dissociation constant, Kd, was determined using the following equation assuming the ratio between the concentration of the bound and that of the total TAMRA-labeled peptide is proportional to the fluorescence polarization [drawing 1] where FP is the fluorescence polarization, B is the minimum FP, T is the maximum FP, L0 is the total concentration of TAMRA-labeled peptide, P0 is the total concentration of protein, and Kd is the dissociation constant.
For the competition FP assays, the stock concentrations of the unlabeled macrocyclized peptides or the Axin1 fragments were determined by amino acid analysis. […]

[1] = molecular target: T2, human tankyrase 2 ankyrin repeat cluster 4 (TNKS2 ARC4, residues 488-649) (human, UniProt Q9H2K2 488-649); test: fluorescence polarisation; direct: TNKS2 ARC4 or TNKS1 ARC2-3 diluted 2-fold serially (40-0 uM, 50 uL) and mixed with TAMRA-labeled peptide (20 nM, 50 uL); 50 mM HEPES pH 7.5, 300 mM NaCl, 2 mM DTT, 0.05% Tween 20; 30 min, 25 C; conditions: both partners purified
T2 sequence (looked up): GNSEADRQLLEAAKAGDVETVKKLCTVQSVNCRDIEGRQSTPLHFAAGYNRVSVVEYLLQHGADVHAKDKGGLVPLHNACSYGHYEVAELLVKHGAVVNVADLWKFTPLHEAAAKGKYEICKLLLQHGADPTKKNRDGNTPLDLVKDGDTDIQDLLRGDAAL

[2] = molecular target: T3, human tankyrase 1 ankyrin repeat clusters 2-3 (TNKS1 ARC2-3, residues 315-662) (human, UniProt O95271 315-662); test: as above; conditions: both partners purified
T3 sequence (looked up): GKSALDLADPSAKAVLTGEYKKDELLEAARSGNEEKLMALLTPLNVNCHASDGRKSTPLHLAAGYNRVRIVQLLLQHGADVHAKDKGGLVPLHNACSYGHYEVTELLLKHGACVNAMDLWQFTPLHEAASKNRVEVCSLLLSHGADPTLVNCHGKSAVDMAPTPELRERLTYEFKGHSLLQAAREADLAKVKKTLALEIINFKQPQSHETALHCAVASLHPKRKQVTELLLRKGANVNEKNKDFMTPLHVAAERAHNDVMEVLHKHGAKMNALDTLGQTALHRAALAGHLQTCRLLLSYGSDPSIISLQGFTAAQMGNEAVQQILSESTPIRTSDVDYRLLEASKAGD

[3] = molecular target: T2, human tankyrase 2 ankyrin repeat …; test: as above; conditions: both partners purified; remark: listed apart in the source
human Axin1_1–80 = human Axin1_1–80 (human, UniProt O15169 1-80); test: ITC; TNKS2 ARC4 (160–280 μM) or TNKS1 ARC2–3 (60–150 μM) titrated into the cell holding peptide (5–15 μM) or Axin1 fragment (8–12 μM); PBS, 0.5 mM TCEP; 25 °C; one-site model; conditions: both partners purified
T-cp4n2m3c = test: fluorescence polarisation; direct FP; TAMRA-labeled peptide (20 nM, 50 μL) mixed with serially diluted TNKS2 ARC4 (40–0 μM, 50 μL); 50 mM HEPES pH 7.5, 300 mM NaCl, 2 mM DTT, 0.05% Tween 20; 30 min at 25 °C
[4] = molecular target: T3, human tankyrase 1 ankyrin repeat …; test: fluorescence polarisation; competition: Axin1 fragment diluted 2-fold serially against TAMRA-labeled pep1 (20 nM) with TNKS1 ARC2-3 (1.2 uM); PBS, 0.05% Tween 20; 30 min, 25 C; conditions: both partners purified
[5] = molecular target: T2, human tankyrase 2 ankyrin repeat …; test: ITC; TNKS2 ARC4 (160-280 uM) or TNKS1 ARC2-3 (60-150 uM) titrated into the cell with unlabeled peptide (5-15 uM) or Axin1 fragment (8-12 uM); PBS, 0.5 mM TCEP; 25 C; one-site model; stoichiometry = TNKS per peptide or Axin1; conditions: both partners purified
[6] = molecular target: T3, human tankyrase 1 ankyrin repeat …; test: as above; conditions: both partners purified
[7] = molecular target: T2, human tankyrase 2 ankyrin repeat …; test: fluorescence polarisation; competition: unlabeled peptide or Axin1 fragment diluted 2-fold serially against TAMRA-labeled pep1 (20 nM) with TNKS2 ARC4 (3 uM); PBS, 0.05% Tween 20; 30 min, 25 C; conditions: both partners purified
TNKS2 ARC4 (488–649) [8] = molecular target: B2; test: pull-down; GST-Axin1 1–80 on glutathione beads incubated with TNKS2 ARC4 (89 μM), washed, then incubated 0.5 h at room temperature with unlabeled peptide (0–200 μM); wash buffer 50 mM Tris·HCl pH 8.0, 500 mM NaCl, 2 mM DTT; SDS-PAGE, Coomassie, densitometry; conditions: both partners purified
TNKS2 ARC4 (488–649) [9] = molecular target: B2; test: fluorescence polarisation; direct FP; TAMRA-labeled peptide (20 nM, 50 μL) mixed with serially diluted TNKS2 ARC4 (40–0 μM, 50 μL); 50 mM HEPES pH 7.5, 300 mM NaCl, 2 mM DTT, 0.05% Tween 20; 30 min at 25 °C; conditions: both partners purified
TNKS2 ARC4 (488–649) [10] = molecular target: B2; test: fluorescence polarisation; competitive FP; T-pep1 (20 nM) with TNKS2 ARC4 (3 μM) as tracer, unlabeled peptide serially diluted; PBS, 0.05% Tween 20; 30 min at 25 °C; conditions: both partners purified

CC(=O)N[C@@H](CCCNC(=N)N)C(=O)N[C@@H](CCC(=O)O)C(=O)N[C@@H](CCCCN=[N+]=[N-])C(=O)NCC(=O)N[C@@H](CC(=O)O)C(=O)NCC(=O)N[C@@H](CCC(=O)O)C(=O)N[C@@H](CCCCN=[N+]=[N-])C(N)=O [cp5n4] (Ac-RE[Lys(N3)]GDGE[Lys(N3)]-NH2)
Kd (TNKS2 ARC4): 2600 ± 100 nM

CC(=O)N[C@@H](CCCNC(=N)N)C(=O)N[C@@H](CCC(=O)O)C(=O)N[C@@H](CCCCN=[N+]=[N-])C(=O)NCC(=O)N[C@@H](CC(=O)O)C(=O)NCC(=O)N[C@@H](CCCCN=[N+]=[N-])C(=O)N[C@@H](CCC(=O)O)C(N)=O [cp4n4] (Ac-RE[Lys(N3)]GDG[Lys(N3)]E-NH2)
Kd (TNKS2 ARC4): 1400 ± 100 nM

{5‑TAMRA-Ahx}-REAGDGEE [T-pep1 (TAMRA-Ahx-REAGDGEE), listing 1 of 2 here]
Kd [1]: 780 ± 60 nM | Kd [2]: 190 ± 4 nM

B1: T-cp4n2m3c-Antp (peptide)
chain 1: REXGDGXE
chain 2: RQIKIWFQNRRMKWKK
modifications: 5-TAMRA-Ahx on the N-terminus; X3 and X7 (n2, 2 CH2): azido unnatural amino acids cross-linked through two triazoles by linker m3c, which carries the second chain | two Ahx spacers between the m3c linker and the N-terminus
Kd [3]: 490 ± 20 nM

B2
stoichiometry N (human Axin1_1–80): 1 | fold higher affinity than T-pep1 (T-cp4n2m3c): 2 fold

MNIQEQGFPLDLGASFTEDAPRPPVPGEEGELVSTDPRPASYS (domain or fragment, UniProt O15169 1-43, looked up) [human Axin1 residues 1-43]
Kd [4]: 560 ± 40 nM | Kd [5]: 2120 ± 160 nM | stoichiometry N [5]: 1 ± 0.02 | Kd [6]: 830 ± 80 nM | stoichiometry N [6]: 1 ± 0.01 | Kd [7]: 3.68 ± 0.18 µM

Ac-RE[Aha]GDG[Aha]E (triazole 3-7 via m3; reading uncertain) [cp4n2m3]
IC50 (TNKS2 ARC4 (488–649) [8]): ~20 µM

{5‑TAMRA-Ahx}-REAGDGEE [T-pep1 (TAMRA-Ahx-REAGDGEE), listing 2 of 2 here]
Kd (TNKS2 ARC4 (488–649) [9]): 800 ± 100 nM

B3: TNKS1 ARC2–3 (315–662) (domain or fragment, human, UniProt O95271 315-662, looked up)
chain: GKSALDLADPSAKAVLTGEYKKDELLEAARSGNEEKLMALLTPLNVNCHASDGRKSTPLHLAAGYNRVRIVQLLLQHGADVHAKDKGGLVPLHNACSYGHYEVTELLLKHGACVNAMDLWQFTPLHEAASKNRVEVCSLLLSHGADPTLVNCHGKSAVDMAPTPELRERLTYEFKGHSLLQAAREADLAKVKKTLALEIINFKQPQSHETALHCAVASLHPKRKQVTELLLRKGANVNEKNKDFMTPLHVAAERAHNDVMEVLHKHGAKMNALDTLGQTALHRAALAGHLQTCRLLLSYGSDPSIISLQGFTAAQMGNEAVQQILSESTPIRTSDVDYRLLEASKAGD
stoichiometry N (human Axin1_1–80): 2

B4: T-cp4n2m3c-R6 (peptide)
chain 1: {5‑TAMRA-Ahx}-RE[Aha]GDG[Aha]E
chain 2: RRRRRR
modifications: triazole I:3-I:7 via m3c; not fully specified (N-terminus); reading uncertain; also: chain 2 N-terminus conjugated to m3c linker of chain 1
Kd [3]: 950 ± 20 nM

Ac-REAGDGEE [pep1]
Kd (TNKS2 ARC4 (488–649) [10]): 1200 ± 100 nM | IC50 (TNKS2 ARC4 (488–649) [8]): ~40 µM

B5: human Axin1 residues 1-80 (domain or fragment, UniProt O15169 1-80, looked up)
chain: MNIQEQGFPLDLGASFTEDAPRPPVPGEEGELVSTDPRPASYSFCSGKGVGIKGETSTATPRRSDLDLGYEPEGSASPTP
Kd [5]: 2620 ± 360 nM | stoichiometry N [5]: 1 ± 0.03 | Kd [6]: 1590 ± 90 nM | stoichiometry N [6]: 2.1 ± 0.02 | Kd [7]: 2.78 ± 0.22 µM
